According to PMC7452723, “How to measure and evaluate binding affinities”:

Tests used:
Puf4 RNA-binding domain [1] = target: T1, Puf4 RNA-binding domain (Saccharomyces cerevisiae, UniProt P25339 537-888); test: competition EMSA; 25 C; vs labeled Puf4_HO, 0.45 nM active Puf4; 190-210 nM across 10-110 min; 230 nM with upper limit of labeled RNA; 20 mM HEPES-Na or HEPES-K pH 7.4, 2 mM MgCl2, 100 mM KOAc, 2 mM DTT, 0.2% Tween 20, 5% glycerol, 0.1 mg/ml BSA; 25 or 0 C; native 20% gel at 4-6 C; details: protein: recombinant; tags: C-terminal SNAP tag; N-terminal 6xHis removed by TEV; label: none; single strand
T1 sequence: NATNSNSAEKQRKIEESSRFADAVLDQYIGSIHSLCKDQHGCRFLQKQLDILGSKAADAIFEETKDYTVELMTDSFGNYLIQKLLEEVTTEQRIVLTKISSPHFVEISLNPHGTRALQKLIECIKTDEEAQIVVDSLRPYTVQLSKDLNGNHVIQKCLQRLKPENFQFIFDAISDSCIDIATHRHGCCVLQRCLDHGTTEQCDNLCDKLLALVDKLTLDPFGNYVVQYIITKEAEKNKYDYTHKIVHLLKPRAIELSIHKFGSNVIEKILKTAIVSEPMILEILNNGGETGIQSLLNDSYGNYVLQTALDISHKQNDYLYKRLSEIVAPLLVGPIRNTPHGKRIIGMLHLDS

Puf4 RNA-binding domain [2] = target: T1, Puf4 RNA-binding domain; test: competition EMSA; 25 C; three-fold lower Puf4; 20 mM HEPES-Na or HEPES-K pH 7.4, 2 mM MgCl2, 100 mM KOAc, 2 mM DTT, 0.2% Tween 20, 5% glycerol, 0.1 mg/ml BSA; 25 or 0 C; native 20% gel at 4-6 C; details: protein: recombinant; tags: C-terminal SNAP tag; N-terminal 6xHis removed by TEV; label: none; single strand
Puf4 RNA-binding domain [3] = target: T1, Puf4 RNA-binding domain; test: EMSA; 25 C; quadratic fit; 20 mM HEPES-Na or HEPES-K pH 7.4, 2 mM MgCl2, 100 mM KOAc, 2 mM DTT, 0.2% Tween 20, 5% glycerol, 0.1 mg/ml BSA; 25 or 0 C; native 20% gel at 4-6 C; details: protein: recombinant; tags: C-terminal SNAP tag; N-terminal 6xHis removed by TEV; label: 5'-32P; single strand
Puf4 RNA-binding domain [4] = target: T1, Puf4 RNA-binding domain; test: EMSA; 0 C; quadratic fit; 20 mM HEPES-Na or HEPES-K pH 7.4, 2 mM MgCl2, 100 mM KOAc, 2 mM DTT, 0.2% Tween 20, 5% glycerol, 0.1 mg/ml BSA; 25 or 0 C; native 20% gel at 4-6 C; details: protein: recombinant; tags: C-terminal SNAP tag; N-terminal 6xHis removed by TEV; label: 5'-32P; single strand
Puf4 RNA-binding domain [5] = target: T1, Puf4 RNA-binding domain; test: EMSA kinetics (koff/kon); 25 C; kon 1.04e8 M-1s-1, koff 0.014 s-1; 20 mM HEPES-Na or HEPES-K pH 7.4, 2 mM MgCl2, 100 mM KOAc, 2 mM DTT, 0.2% Tween 20, 5% glycerol, 0.1 mg/ml BSA; 25 or 0 C; native 20% gel at 4-6 C; details: protein: recombinant; tags: C-terminal SNAP tag; N-terminal 6xHis removed by TEV; label: 5'-32P; single strand
Puf4 RNA-binding domain [6] = target: T1, Puf4 RNA-binding domain; test: EMSA; 25 C; direct measurement parallel to competition; corrected for 75% active protein; 20 mM HEPES-Na or HEPES-K pH 7.4, 2 mM MgCl2, 100 mM KOAc, 2 mM DTT, 0.2% Tween 20, 5% glycerol, 0.1 mg/ml BSA; 25 or 0 C; native 20% gel at 4-6 C; details: protein: recombinant; tags: C-terminal SNAP tag; N-terminal 6xHis removed by TEV; label: 5'-32P; single strand
Puf4 RNA-binding domain [7] = target: T1, Puf4 RNA-binding domain; test: EMSA; 25 C; hyperbolic fit; active-fraction corrected; 20 mM HEPES-Na or HEPES-K pH 7.4, 2 mM MgCl2, 100 mM KOAc, 2 mM DTT, 0.2% Tween 20, 5% glycerol, 0.1 mg/ml BSA; 25 or 0 C; native 20% gel at 4-6 C; details: protein: recombinant; tags: C-terminal SNAP tag; N-terminal 6xHis removed by TEV; label: 5'-32P; single strand
Puf4 RNA-binding domain [8] = target: T1, Puf4 RNA-binding domain; test: EMSA; 0 C; hyperbolic fit, upper limit (<=); 20 mM HEPES-Na or HEPES-K pH 7.4, 2 mM MgCl2, 100 mM KOAc, 2 mM DTT, 0.2% Tween 20, 5% glycerol, 0.1 mg/ml BSA; 25 or 0 C; native 20% gel at 4-6 C; details: protein: recombinant; tags: C-terminal SNAP tag; N-terminal 6xHis removed by TEV; label: 5'-32P; single strand
Puf4 RNA-binding domain [9] = target: T1, Puf4 RNA-binding domain; test: EMSA kinetics (koff/kon); 0 C; kon 2.85e7 M-1s-1, koff 2.92e-5 s-1; 20 mM HEPES-Na or HEPES-K pH 7.4, 2 mM MgCl2, 100 mM KOAc, 2 mM DTT, 0.2% Tween 20, 5% glycerol, 0.1 mg/ml BSA; 25 or 0 C; native 20% gel at 4-6 C; details: protein: recombinant; tags: C-terminal SNAP tag; N-terminal 6xHis removed by TEV; label: 5'-32P; single strand

Binder	Kd (Puf4 RNA-binding domain [1]) [nM]	Kd (Puf4 RNA-binding domain [2]) [nM]	Kd (Puf4 RNA-binding domain [3]) [nM]	Kd (Puf4 RNA-binding domain [4]) [nM]	Kd (Puf4 RNA-binding domain [5]) [nM]	Kd (Puf4 RNA-binding domain [6]) [nM]	Kd (Puf4 RNA-binding domain [7]) [nM]	Kd (Puf4 RNA-binding domain [8]) [nM]	Kd (Puf4 RNA-binding domain [9]) [nM]
CGUAUAUUA (ssRNA) [U1C mutant competitor RNA]	204	180							
AUGUGUAUAUUAGU (ssRNA) [Puf4_HO RNA]			0.12 ± 0.03	0.00139 ± 9e-05	0.13 ± 0.03	0.105	0.12 ± 0.03	< 0.0017	0.00102 ± 8e-05
